Patent US20090136940

Target: T1, NF-kB p50 (NFKB1) (Homo sapiens) (UniProt P19838)
T1 sequence: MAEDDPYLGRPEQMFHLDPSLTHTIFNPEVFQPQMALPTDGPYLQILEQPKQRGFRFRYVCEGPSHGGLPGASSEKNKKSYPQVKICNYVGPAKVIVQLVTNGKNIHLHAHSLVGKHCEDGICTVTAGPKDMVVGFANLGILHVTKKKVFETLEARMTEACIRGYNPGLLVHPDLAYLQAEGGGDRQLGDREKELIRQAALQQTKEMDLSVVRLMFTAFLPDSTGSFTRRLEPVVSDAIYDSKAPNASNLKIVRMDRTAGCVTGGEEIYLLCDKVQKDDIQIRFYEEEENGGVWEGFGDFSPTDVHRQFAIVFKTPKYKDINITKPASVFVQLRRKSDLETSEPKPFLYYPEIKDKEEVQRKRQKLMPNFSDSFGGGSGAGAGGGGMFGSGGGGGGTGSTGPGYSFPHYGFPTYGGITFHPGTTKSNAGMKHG
Test: EMSA
Conditions: saturating p50 monomer (200 nM)

Sequence	binding signal (% fluorescence co-migrating with p50) (internucleoside phosphotriester triethylene glycol amino linker after T8 of SEQ 1)	binding signal (% fluorescence co-migrating with p50) (internucleoside phosphotriester triethylene glycol amino linker after T12 of SEQ 2, truncated site)
CGGAAAGTCCCTCATAGCT (double strand) [I (ODN2)/Cy5.5-XIX (ODN3)]	94	
TGGAAAGCTTTTTACAGTT (double strand) [ODN4/Cy5.5-ODN5]		63
